Test results reported in the DeepSol protein solubility set.

Assay: soluble on expression in E. coli; label from the status in PepcDB or PDB records

Row | Sequence | soluble on expression in E. coli
1 | ADILLLDNIDSFTWNLADQLRTNGHNVVIYRNHIPAQTLIDRLATMKNPVLMLSPGPGVPSEAGCMPELLTRLRGKLPIIGICLGHQAIVEAYGGYVGQAGEILHGKATSIEHDGQAMFAGLANPLPVARYHSLVGSNVPAGLTINAHFNGMVMAVRHDADRVCGFQFHPESILTTQGARLLEQTLAWAQQK | soluble
2 | MPEEMDKPLISLHLVDSDSSLAKVPDEAPKVGILGSGDFARSLATRLVGSGFKVVVGSRNPKRTARLFPSAAQVTFQEEAVSSPEVIFVAVFREHYSSLCSLSDQLAGKILVDVSNPTEQEHLQHRESNAEYLASLFPTCTVVKAFNVISAWTLQAGPRDGNRQVPICGDQPEAKRAVSEMALAMGFMPVDMGSLASAWEVEAMPLRLLPAWKVP | soluble
3 | MTLTKAELADILVDKVSNVTKNDAKEIVELFFEEIRSTLASGEEIKISGFGNFQLRDKPQRPGRNPKTGEEVPITARRVVTFHASQKLKSMVEHYYDKQR | not soluble
4 | GPGSMKGCCRLLSAAEAASLIRRIGPFAVHRGEATGVIEILSGDPNHPVKKLNLLGLAYAAALTELSELLSEELNAEARVAIFAARDGCSFSAGIDLKELSGMRPPSGSGAAATAAASSGPKAPAMLLQHQHRVVRTFQDGISSLARCRIPIIAAIDGHCIGGATSVASSCDVRYTTTRATFSVKEAAVGLAADIGVLQRLPAIIGEGRTRELAFTCRDFSGVEAKAMGFVEEVCADYPALLAHARKRAAQIAANSPLGVQNTKLILNWERERAAQTSLEYQAAINAFSLHCSDIPEAARAFAERREPVFTDYMVNPRGGPPHSRQS | not soluble
5 | MKFPGQRKSKHYFPVHARDPLVIQAQENKKMSRTHIIGIDQTLVDIEAKVDSDLIERYGLSKGHSLVIDDHAAEALYNELKEQRLITNEYAGGTIGNTLHNYSVLADDRSTLLGVMSQDIKIGSYGYRYLCNTSSRMDLNYLQGVDGAIGRCFALITEDGERTFAISEGQMNQLRPDSIPEKIFASASALVITAYLVRCKEGDPMPEATMRAIEYAKKYDVPVVLTLGTKFVIQDDPKFWQEFLRDHVTVVAMNEDEALALTGESDPLAASDKALDWVDLVLCTAGPVGLFMAGYTEDSAKRETSLPLLPGSVPEFNRYEFSRPARKESCINPIRVYSHISPYMGGPEKIKNTNGAGDAALSALLHDMAANKYHKENVPNSSKHQHEFLTYSSFSQVCKYSNRASYEVLAQHSPRLSRGLPEREDSLEEAYWER | not soluble
6 | MGSDKIHHHHHHMPKHLYSLLVVNINMFEKEKEILAKRIAGEIVLSPDPGKTMRKWREIFGISQTELADYLGVSSSVISDYEGGRRKSPGASTIRKFVEALIEIDEKRGGNVIKAFSRTFSSEIPTSAILDIREFDIPVTVKDIVDAVKGEIVANPDLIDRKIYGYTVVDSIQAILEMSAEEFLKLYGWTTERALVFTKVTTGRSPMIAVRVQGLKPAMVVLHGVKRLDELAVKIAEKERVPLVVSKAENETELITGLRRLVTSI | not soluble
7 | MRIEEDLKLGFKDVLIRPKRSTLKSRSDVELERQFTFKHSGQSWSGVPIIAANMDTVGTFSMASALASFDILTAVHKHYSVEEWQAFINNSSADVLKHVMVSTGTSDADFEKTKQILDLNPALNFVCIDVANGYSEHFVQFVAKAREAWPTKTICAGNVVTGEMCEELILSGADIVKVGIGPGSVCTTRVKTGVGYPQLSAVIECADAAHGLGGMIVSDGGCTTPGDVAKAFGGGADFVMLGGMLAGHEESGGRIVEENGEKFMLFYGMSSESAMKRHVGGVAEYRAAEGKTVKLPLRGPVENTARDILGGLRSACTYVGASRLKELTKRTTFIRVQEQENRIFNNL | soluble
8 | MGSDKIHHHHHHMSLEGLSINFATVRQGGNFGAIVDACLAHGITAISPWREQVHGVGLAEAARIVEQNGLRLSGHCRGGFFPAIDADGRRRAIEDNKRAVDEAAAMKADCLVLVVGGLPAGSRDLKGARQMVEDGMAKLLPYARAAGVPLAIEPLHPFYAAERACFNTLKQSLDLCDRLGAGTGVAIDVYHVWWDPELEEQVARAGRNGQILAHHICDWLVPTTDPLNDRGMMGDGVIDLKAFRAMIEAAGFHGPQEVEIFSHRWQARPMDEVLATVVERFKTVC | not soluble
9 | PAGHADDAMHSYFTFVAPDRGLAKVAAAQAAALRPFLAGTPLADLPLLSSVSPLKAGGRAGPDHYTDVPAGPLSMRHVADLHMFPNELRALVLTGADLREWLEMAAGVFLSPAPAGACDMLLDTSVPGHNFDSLYGLTYEIDPRAPPRYDIGGRLIADENRRIGSLCHNGTPVDDRQKFVVALNNYRANGGGHFLMLDRGEPVPLPSLRIQSALHDYLSGRLPADPLEQAPHPWRLAPL | not soluble
10 | MSLTTIIFDNGGHNMKIGTIDSESPRLVPNSIVKAKHEKKRVFVAHEQEECSDKFSLFYVRPIERGYVVNWDTQQQIWEKTFGSMDVEASTSRIALTDNNYLIPALPDVSSEILFDYFGFTEVHKTSASTLVAKHSNKINNEKCAVVVDSGFSWTTVASFVNGMLIQDSVIRIDVGGKALTNKLKDWVSYRQLNVSEETYVINECKEDLCFVSQNFDESMKEARNRFQENTTMKRYIMPDFHSTFRGVVKDVKEPHDPQIPSIHLGVERFAIPEILFNPSDIDIDQCGVAEAVIESICQCPEALRPALAENIIVIGGSSCFPGFRERLEREVRSMLPAEYGLNVSNDVINPQTHSWHCGQELLTASKVPWINRKDWDERGDSLEFSNFFQTLVQSDELKGTRNFDDQREKSPKEDEDF | not soluble
11 | GPGSMKAQPKQIGCYLVTEASREESFVVLEGHEVDNPNRHVRAKALLEDRAAPENISVRIGIEENLLGRSVAYPRARCRALEQEEGKSVRASNDSLAELWRARPL | soluble
12 | METIKISEQELINALCIYIAEKRQVGPEEVLVELMYDDDYGFSAEVEVNGRQQILIQANLIEALRLLLDREYNVNPFAARLQLELDDEEGIYALAKFNNSDD | not soluble
13 | MIDKIVFEEDEEYDLTQDSFRYGRVTTGASYNLVTGKIPETVLEQVKAKDDENDDVEFEMDHLEDKEAVQKTKTFDELYESQMPKYFEYQSNFSEVNGIWTLLFDQNHYENMSTFELQAAICAALNSKHYMMICVGIDAFNAVTGVEMSAKDRVVFRMALTRAVAGEFQPPLVKVAPKQLTGVSPMKRDISEVTSSIDVLFIPVIGVTDEVENNRFLIVVRVKEISDKVYQISSGRIYNELEGRVVEMSDMNEAFHKLIVEQSISDIQTRRGSMFMLEPEPFLEDSPVIFTGSKEILRENHEIPNILKENSTERSLSQSLLNLLDIQNIGWIFFGTALSCCIYNNAIKPLVK | not soluble
14 | MLLAMELLLEYDYYWKLDNIIANVQRNFPSNSLTVLFPKTHLLISPENMGRVAAKLIRLTEKNQQRNGIVTFKLYYQHEEGEEEEEEEVDEDEDEEGEEGEEEEEEEDEVEEVPQKISEIFNLGAHLVGEPPENCWYLEDILTIPKEIIKDAFGDVTVWYGKSFQLRNSIANRRIHFNLFYTKNYLKKFFMERDGCMMETEFLRHFKDIAN | not soluble
15 | MSLNQSFTQFGDGYASTGTLNIGDVLDIMIWEAPPAVLFGGGLSSMGSGSAQQTKLPEQLVTARGTVSVPFVGDISVVGKTPGQVQEIIKGRLKKMANQPQVMVRLVQNNAANVSVIRAGNSVRMPLTAAGERVLDAVAAVGGSTANVQDTNVQLTRGNVVRTVALEDLVANPRQNILLRRGDVVTMITNPYTFTSMGAVGRTQEIGFSARGLSLSEAIGRMGGLQDRRSDARGVFVFRYTPLVELPAERQDKWIRQGYGSEAEIPTVYRVNMADAHSLFSMQRFPVKNKDVLYVSNAPLAEVQKFLSFVFSPVTSGANSINNLTNEGHHHHHH | not soluble
16 | MGEITQYSVSPALPAGLAIDPQTGVITGTPTAVTASAVYTVTGANSVDSVQALLTIEVAAVAVPPVGLVYVDRLPEYIVGVPITYNEPAYTGGEVTQFSISPALPAGLTLNTQSGVISGTPTVELAQTTFFITASNSAGLEHHHHHH | not soluble
17 | MGSDKIHHHHHHMKLSRLKRKHKRVISVGKIAEQFWCEMKVELKLLYDIKPSNALVRKGKRIHDEISGKASLPRPKNFIDWLGGQIYFTNLSIESFLKSGLGREVFLVTKVDGDGWRWYLSGSIDEIRKKGGRTQVVERKTRLREEVPENESHKVQGLLYHLMLDEARRQKVSRNVKRAYGVVERAAISKEFSQAVGMTERNVKAMLRTLDSKLPMIPELDEEVVVIYESQKTGERIGEVRFKAQREEIERILQFSREYWAGEREALKTRENWKCRFCEVRKYCL | not soluble
18 | MAHHHHHHMKNALEQLDRHPLVNFQMDVSPLYSALKNIMQEQIQQAQLQEKISQRLTNLEAEVRSVGVRQKEFEDSLDALTPDAKLQTQQTLKELSTNIKNLTSDMKKVRYDVGEAMRTAVDAKRGIHDLESELLSIRQQQRDFSDLHQEVMREHLKFTAAVKDIRWKIEEQEKLIQEFSQVKPQNTSEVDESKLHGMLSALCERTDQNFRSVEESSFAVDAELTRLRADMKFVQNEVRMLRSELHRGGNHLRRDVGCRRQSPHGGSQGADKSALRNEEHLNGYESASTQGAL | not soluble
19 | MELLVKMGWDDWFAAHAGASSDAGRPGRVVAEQRGEYRVRTADGEVAAILTGRAMRETAGDRLERPVVGDWVIVEPVAGDSTVLVRAVLPRRTILARRESGRGAEVQPVAANVDIVFIVAGLDGALNLRRLERFLAAARESGAEPVVLLTKSDLAGDPAAPAEEAATVAPGIRVMTVSSLDGAGVDEVGALLAPGVTACFIGPSGVGKSSLVNLLAGDPVMAIGAVRERDAKGRHTTTHRQLILLPGGGIVIDTPGMREFGLWQVDEGIDAAFPEIAELAAGCRFHDCSHRHEPGCAVRTALAEGGLDPGRYGSYLKLRLEEETMATLADAEGRRERKKGERRMAKGLRAVLRKKGKK | not soluble
20 | MGSDKIHHHHHHMRIAQVAPLWERVPPPAYGGIELVVGLLTDELVRRGHEVTLFASGDSISLANLVSVHPRALRLDSSVKEYGIYEMLQLSTVYERADEFDIIHSHMGCASLPYTKLVKTPTVHTLHGIFTPDNEKMFRYAKTEPFVSISDAQRDLRLGLNYVGTVYNGIDVNSYKFYPQPDEPPYLAFLGRISPEKGTHLAIEIAKKSGWHLKIAGKVDVVDVEYFEKEIKPLIDGKQIEYLGEADHTQKNVLMGGAVATLFPITWREPFGLVMVESMASGTPVIAMNLGSTTEVIAHGKTGFLCSNVEECVSAIAKVADLDRYTCREYVQNRFSLQAMTEGYEEVYRQILQQRFANNGHHRSTVALSKV | not soluble
21 | MSLKPRACVVVYPGSNCDRDAYHALEINGFEPSYVGLDDKLDDYELIILPGGFSYGDYLRPGAVAAREKIAFEIAKAAERGKLIMGICNGFQILIEMGLLKGALLQNSSGKFICKWVDLIVENNDTPFTNAFEKGEKIRIPIAHGFGRYVKIDDVNVVLRYVKDVNGSDERIAGVLNESGNVFGLMPHPERAVEELIGGEDGKKVFQSILNYLKREGGSHHHHHH | soluble
22 | MSLKNDVSPLEIKVIDENSEQYGISKETLMENAGRAVYEEIVNLNVDFSKTYLFCGTGNNGGDGFVIARHLANNFATFVVLIGNERKIKTSETQRNFNTVKNMEFFGNLDYANILDDERAVELLKTIEKELENKQNDHILIIDAMLGTGITGILKNPYSTIVDYLNVLKSKYSKKLKMVSVDIQTGNLNADLEVILHKRKFENKNKNFVVKDIGIPKYIENMVGKGDFYLLNERKQNSHKGQNGNVLVIGGSKEYHGAPVFSALAASKFADIVTVASVSNVMNTVSNYPELMPYELTGDYIVQNHVDELLELSKNYDCVVLGSGISVNSDTKEFVNSYLNETNGKVVIDADAIKLIDYSNFKFKNNFIFTPHKKEFEYIENYIESSGFKSTVVLKGSLDIIFNSNNIKMNITGNQGMTVGGTGDILCGIIGAIYACNDAFPSACCGTYINGYCGDLLEKEYGYYYNSTDIIKILPKALKELLYEGHHHHHH | soluble
